Source: patent publication EP4714976A1 (Sunshine Lake Pharma Co., Ltd., dated 2026)
Positions count from the first letter of the chain named.

B1: 3H6 scFv displayed on phage (scFv)
scFv: QVQLQQSGAELVKPGASVKMSCKASGYTFSFYNIHWVRQTPGQGLEWIGLIYPDNGDTSYNQKFKAKATLTADKSSSTAYMQLSSLTSEDSAVYYCARGGFDYWGQGTTLTVSSGGGGSGGGGSGGGGSDIQMTQSPASLSASVGETVTITCRASENIYSYLAWYQQKQGKSPQLLVYNAKTLAEGVPSRFSGSGSGTQFSLKINSLQPEDFGSYYCQHHYGTPYTFGGGTKLEMK
B2: 3H9 scFv-Fc (Fc fusion)
chain: EIQLQQSGAELVKPGASVKMSCKASGYTFSFYNMHWVKRTPGQGLEWIGLIYPDNGDTSYNQKFKGKATLTADTSSSTAYMQLSSLTSEDSAVYYCARGGLDYWGQGTTLTVSSGGGGSGGGGSGGGGSDIVLTQSPASLSVSVGETVTITCRASENIYSNLAWYQQKQGKSPQLLVYAATNLADGVPSRFSGSGSGTQYSLKINSLQSEDFGSYYCQHFWGTPYTFGGGTKLELKESKYGPPCPPCPAPEAAGGPSVFLFPPKPKDTLMISRTPEVTCVVVDVSQEDPEVQFNWYVDGVEVHNAKTKPREEQFNSTYRVVSVLTVLHQDWLNGKEYKCKVSNKGLPSSIEKTISKAKGQPREPQVYTLPPSQEEMTKNQVSLTCLVKGFYPSDIAVEWESNGQPENNYKTTPPVLDSDGSFFLYSKLTVDKSRWQEGNVFSCSVMHEALHNHYTQKSLSLSLG
notes: scFv-Fc dimer
B3: 3D6 scFv-Fc (Fc fusion)
chain: QVQLQQSGAELVKPGASVKMSCKASGYTFRYYNMHWVKRTPGQGLEWIGLIYPDNGDTSYNQKFKGKATLTADTSSSTAYMQLSSLTSEDSAVYYCARGGLDYWGQGTSLTVSSGGGGSGGGGSGGGGSDIQMTQSPASLSVSVGETVTITCRASENIYSNLAWYQQKQGKSPQLLVYNAKTLADGVPSRFSGSGSGTQYSLKINSLQPEDFGSYYCQHFWSTPFTFGSGTKLELKESKYGPPCPPCPAPEAAGGPSVFLFPPKPKDTLMISRTPEVTCVVVDVSQEDPEVQFNWYVDGVEVHNAKTKPREEQFNSTYRVVSVLTVLHQDWLNGKEYKCKVSNKGLPSSIEKTISKAKGQPREPQVYTLPPSQEEMTKNQVSLTCLVKGFYPSDIAVEWESNGQPENNYKTTPPVLDSDGSFFLYSKLTVDKSRWQEGNVFSCSVMHEALHNHYTQKSLSLSLG
notes: scFv-Fc dimer
B4: 1C10 scFv-Fc (Fc fusion)
chain: B3 chain with Q132V, V142A, E156G, Y159H, S160N, N161Y, F225Y, S229G, L235M
notes: scFv-Fc dimer
B5: 3B7 scFv displayed on phage (scFv)
scFv: EVQLQQSGAELVKPGASVKMSCKASGYTFRYYNMHWVKRTPGQGLEWIGLIYPDNGDTSYNQKFKGKATLTADTSSSTAYMQLSSLTSEDSAVYYCARGGFDYWGQGTTLTVSSGGGGSGGGGSGGGGSDIQMTQSPASLSASVGETVTITCGASENIYGALNWYQRKQGKSPQLLIYGATNLADGMSSRFSGSGSGRQYSLKISSLHPDDVATYYCQNVLSTPYTFGGGTKLELK
B6: 3E3 scFv displayed on phage (scFv)
scFv: QVQLQQPGAVLVKPGASVRMSCKASGYTFPYYNVHWVKRTPGQGLEWIGLIYPDNGDTSYNQKFTGKATLTADTSSSTAYMQLSSLTSEDSAVYYCARGGLDYWGQGTTLTVSAGGGGSGGGGSGGGGSDVQITQSPASLSASVGETVTITCGASENIYGALNWYQRKQGKSPQLLIYGATNLADGMSSRFSGSGSGRQYSLKISSLHPDDVATYYCQNVLSTPYTFGGGTKLEIK
B7: 3B4 scFv displayed on phage (scFv)
scFv: B5 scFv with E10D, R30S, K38R, F101L, T134I, L140M, L235M
B8: 3F5 scFv displayed on phage (scFv)
scFv: B5 scFv with V2I, F101L, Q132V, M133L, L235I
B9: 3F10 scFv displayed on phage (scFv)
scFv: B5 scFv with R30S, Y31F, M34I, K38R, R39Q, G66A, T74K, I131V, Q132L, L235I
B10: 3C9 scFv displayed on phage (scFv)
scFv: B5 scFv with V2I, T28I, F101L, T134I, L235I
B11: 3A8 scFv displayed on phage (scFv)
scFv: QVQLQQSGAELVKPGASVKMSCKASGYTFTIYNIHWVRQTPGQGLEWIGLIYPDNGDTSYNQKFKAKATLTADKSSSTAYMQLSSLTSEDSAVYYCARGGFDYWGQGTSLTVSSGGGGSGGGGSGGGGSDIVMTQSQKFMSTSVGDRVSVTCKASQNVGTNVAWYQQKPGQSPKALIYSASYRYSGVPDRFTGSGSGTDFTLTISNVQAEDLADYFCQQHYSTPYTFGGGTKLEMK
B12: 3E7 scFv displayed on phage (scFv)
scFv: B11 scFv with S109T, D130N, N206G, F216Y, S222N, M235I
B13: 3F11 scFv displayed on phage (scFv)
scFv: B11 scFv with T30A, I31P, A209S, D214E, Y225F, G229S, M235I
B14: 2B1 scFv displayed on phage (scFv)
scFv: EVQLQQSGAELVKPGASVKMSCKASGYTFASYNLHWVKQTPGQGLEWIGLIYPENGDTSYNQKFKGKATLTADKSSSTAYIQLSSLTSEDSAVYFCARGGFDYWGQGTSLTVSSGGGGSGGGGSGGGGSDIQMIQSPASLSVSVGETVTITCRASENIYSNLAWYQQKQGKSPQLLVYNAKTLADGVPSRFSGSGSGTQYSLKINSLQPEDFGSYYCQHFWSTPYTFGGGTKLEIK

Columns and labels:
[1] = molecular target: T1, extracellular domain of FGFR2c protein (Example 1) (UniProt P21802 22-377); assay: phage ELISA
T1 construct: extracellular domain
T1 sequence (P21802 22-377): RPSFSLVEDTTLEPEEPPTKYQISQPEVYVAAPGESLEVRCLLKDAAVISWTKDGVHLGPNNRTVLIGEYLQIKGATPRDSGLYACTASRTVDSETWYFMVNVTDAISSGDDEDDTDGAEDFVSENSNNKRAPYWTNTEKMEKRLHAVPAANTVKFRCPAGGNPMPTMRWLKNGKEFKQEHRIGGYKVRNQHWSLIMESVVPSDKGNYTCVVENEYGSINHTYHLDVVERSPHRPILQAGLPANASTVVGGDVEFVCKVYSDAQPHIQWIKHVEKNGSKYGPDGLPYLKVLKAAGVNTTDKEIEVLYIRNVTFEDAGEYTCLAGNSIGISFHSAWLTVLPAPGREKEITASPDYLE

[2] = molecular target: T1, extracellular domain of FGFR2c protein …; assay: phage ELISA; remark: listed apart in the source
[3] = molecular target: T2, recombinant cynomolgus monkey FGFR2b (cynomolgus monkey); assay: ELISA, antibody 1ug/mL
T2 construct: extracellular domain; bought; also called cynomolgus macaque FGFR2b

FGFR2c (acro) = FGFR2c (acro) (UniProt P21802 22-377); assay: ELISA, antibody 10 µg/mL
Sequence of FGFR2c (acro) (P21802 22-377): as above

[4] = molecular target: T3, human FGFR2b (Kaixia Biotechnology, catalog number FGR-HM1BB) (human, UniProt P21802-3 22-378); assay: BLI, antibody on AHC2 sensor
T3 construct: extracellular domain; bought; also called hFGFR2b; human FGFR2b protein
T3 sequence (P21802 other isoform, or with tags, fused parts or gaps): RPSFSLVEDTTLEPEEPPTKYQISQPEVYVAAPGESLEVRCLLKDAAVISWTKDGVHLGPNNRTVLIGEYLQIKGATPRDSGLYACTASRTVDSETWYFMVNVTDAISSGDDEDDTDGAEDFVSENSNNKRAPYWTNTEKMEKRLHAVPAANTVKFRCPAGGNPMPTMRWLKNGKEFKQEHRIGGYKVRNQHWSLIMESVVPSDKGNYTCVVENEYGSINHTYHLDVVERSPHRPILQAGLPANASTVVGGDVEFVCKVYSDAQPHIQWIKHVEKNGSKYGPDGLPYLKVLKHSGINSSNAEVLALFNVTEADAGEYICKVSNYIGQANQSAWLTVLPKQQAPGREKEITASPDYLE

FGFR2b on KATO III cells = molecular target: T4, FGFR2b on KATO III cells (human, UniProt P21802-3 22-822); assay: flow cytometry, KATO III cells
T4 construct: whole, on cells; also called KATO III cells that overexpress FGFR2b
T4 sequence (P21802 other isoform, or with tags, fused parts or gaps): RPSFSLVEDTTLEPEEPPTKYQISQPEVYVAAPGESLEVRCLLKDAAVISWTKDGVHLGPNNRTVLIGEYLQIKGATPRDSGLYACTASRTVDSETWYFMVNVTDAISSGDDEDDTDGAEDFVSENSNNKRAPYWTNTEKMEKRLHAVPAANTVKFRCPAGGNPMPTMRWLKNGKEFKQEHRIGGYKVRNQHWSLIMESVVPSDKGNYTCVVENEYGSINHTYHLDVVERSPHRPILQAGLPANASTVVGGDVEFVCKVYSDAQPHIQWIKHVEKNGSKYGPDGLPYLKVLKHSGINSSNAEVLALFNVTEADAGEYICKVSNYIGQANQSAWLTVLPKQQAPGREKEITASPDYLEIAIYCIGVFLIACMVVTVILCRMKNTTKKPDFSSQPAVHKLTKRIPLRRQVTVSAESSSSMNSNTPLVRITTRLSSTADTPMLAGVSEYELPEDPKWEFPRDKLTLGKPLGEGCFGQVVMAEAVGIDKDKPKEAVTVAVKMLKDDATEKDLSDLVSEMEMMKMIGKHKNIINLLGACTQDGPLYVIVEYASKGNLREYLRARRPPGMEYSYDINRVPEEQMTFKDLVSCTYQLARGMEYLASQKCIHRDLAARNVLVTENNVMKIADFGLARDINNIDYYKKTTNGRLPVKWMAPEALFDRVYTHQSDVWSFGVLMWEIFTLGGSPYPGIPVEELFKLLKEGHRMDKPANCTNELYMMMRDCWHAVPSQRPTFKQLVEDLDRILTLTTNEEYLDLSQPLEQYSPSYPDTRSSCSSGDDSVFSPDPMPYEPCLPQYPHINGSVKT

[5] = molecular target: T3, human FGFR2b (Kaixia Biotechnology, …); assay: ELISA, FGFR2b coated at 1 µg/ml

Row | Binder | binding result [1] | OD (450 nm) value [2] | also measured
1 | B1 | no binding | 0.062 | –
2 | B2 | – | – | OD (450 nm) value [3]: 3.29; OD (450 nm) value (FGFR2c (acro)): 0.45; Kd [4]: 5.69 nM; koff [4]: 0.00152 s⁻¹; kon [4]: 267000 M⁻¹ s⁻¹; EC50 (FGFR2b on KATO III cells): 0.161 µg/mL; EC50 [5]: 0.0278 µg/mL
3 | B3 | – | – | OD (450 nm) value [3]: 3.4; OD (450 nm) value (FGFR2c (acro)): 0.542; Kd [4]: 15 nM; koff [4]: 0.00114 s⁻¹; kon [4]: 75900 M⁻¹ s⁻¹; EC50 (FGFR2b on KATO III cells): 0.136 µg/mL; EC50 [5]: 0.0369 µg/mL
4 | B4 | – | – | OD (450 nm) value [3]: 3.3; OD (450 nm) value (FGFR2c (acro)): 0.553; Kd [4]: 11.1 nM; koff [4]: 0.00278 s⁻¹; kon [4]: 250000 M⁻¹ s⁻¹; EC50 (FGFR2b on KATO III cells): 0.152 µg/mL; EC50 [5]: 0.0159 µg/mL
5 | B5 | no binding | 0.043 | –
6 | B6 | no binding | 0.033 | –
7 | B7 | no binding | 0.042 | –
8 | B8 | no binding | 0.038 | –
9 | B9 | no binding | 0.039 | –
10 | B10 | no binding | 0.033 | –
11 | B11 | no binding | 0.065 | –
12 | B12 | no binding | 0.034 | –
13 | B13 | no binding | 0.045 | –
14 | B14 | no binding | 0.049 | –
